Source: patent publication CN101233156A (MEDAREX INC, dated 2008)

T1: 人CD 19 (细胞表面上表达: Raji、Daudi、ARH-77细胞, 人CD 19转染的CHO细胞) (human, UniProt P15391 20-556)
T1 construct: CD19 on the surface of B cell tumour lines (endogenous) or of CHO cells transfected with full-length cDNA of the transmembrane form; it is not tied word for word to the cells used; also called CHO-CD 19; CD 19-CHO
T1 sequence: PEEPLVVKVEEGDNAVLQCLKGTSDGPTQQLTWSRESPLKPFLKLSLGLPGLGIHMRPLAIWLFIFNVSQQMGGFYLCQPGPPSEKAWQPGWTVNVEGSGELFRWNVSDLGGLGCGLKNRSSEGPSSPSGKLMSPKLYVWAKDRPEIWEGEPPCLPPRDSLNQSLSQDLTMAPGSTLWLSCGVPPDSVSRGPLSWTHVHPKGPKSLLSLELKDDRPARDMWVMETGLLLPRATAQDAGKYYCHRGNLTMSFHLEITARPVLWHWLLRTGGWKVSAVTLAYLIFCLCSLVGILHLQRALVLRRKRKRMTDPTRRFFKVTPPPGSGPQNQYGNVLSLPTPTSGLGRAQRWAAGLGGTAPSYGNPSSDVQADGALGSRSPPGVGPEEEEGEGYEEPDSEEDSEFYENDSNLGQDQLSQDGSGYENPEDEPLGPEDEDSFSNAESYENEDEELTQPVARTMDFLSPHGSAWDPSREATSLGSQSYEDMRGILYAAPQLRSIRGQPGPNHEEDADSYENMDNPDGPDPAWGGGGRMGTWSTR

B1: 抗CD 19人单克隆抗体47G4 (antibody, V domains shown)
VH: QVQLVQSGAEVKKPGSSVKVSCKDSGGTFSSYAISWVRQAPGQGLEWMGGIIPIFGTTNYAQQFQGRVTITADESTSTAYMELSSLRSEDTAVYYCAREAVAADWLDPWGQGTLVTVSS
VL: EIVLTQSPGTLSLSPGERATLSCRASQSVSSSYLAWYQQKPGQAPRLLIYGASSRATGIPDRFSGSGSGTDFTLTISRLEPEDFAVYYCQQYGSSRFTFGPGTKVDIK
notes: 125I-labelled in the Scatchard assay; also called HuMAb 47G4; CD 19 HuMab 47G4
B2: 抗CD 19人单克隆抗体21D4 (antibody, V domains shown)
VH: EVQLVQSGAEVKKPGESLKISCKGSGYSFSSSWIGWVRQMPGKGLEWMGIIYPDDSDTRYSPSFQGQVTISADKSIRTAYLQWSSLKASDTAMYYCARHVTMIWGVIIDFWGQGTLVTVSS
VL: AIQLTQSPSSLSASVGDRVTITCRASQGISSALAWYQQKPGKAPKLLIYDASSLESGVPSRFSGSGSGTDFTLTISSLQPEDFATYYCQQFNSYPYTFGQGTKLEIK
notes: Human monoclonal antibody from KM mouse hybridoma; also called HuMAb 21D4; HuMab 21D4

Biological target: T1, 人CD 19 (细胞表面上表达: Raji、Daudi、ARH-77细胞, …)
Experiment: Scatchard analysis, 125I-labelled antibody on Raji cells

| Binder | Kd [nM] |
| --- | --- |
| B1 | ~12 |
| B2 | ~2.14 |
